Data as given in article PMC8534003 (2021).
Where no end group is shown, it is not given here. The star is where a group is joined. Biotin = O=C1N[C@H]2[C@H](CS[C@H]2CCCCC(=O)*)N1

Biological target: human recombinant FGF-2 (human, UniProt P09038 143-288)
Sequence (P09038 143-288): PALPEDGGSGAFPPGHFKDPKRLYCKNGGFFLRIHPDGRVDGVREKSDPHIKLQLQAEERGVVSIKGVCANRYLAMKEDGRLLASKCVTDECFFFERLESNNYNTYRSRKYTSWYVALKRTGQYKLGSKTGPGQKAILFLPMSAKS

Biotin-KKKQKNGKKHQKKKVLKVRKSQRSRQKKTT [biotinylated CXCL9(74-103)]
koff: 0.00207 s⁻¹
